Results from patent US20230279125A1 (published 2023).

T1: extracellular domain of human IL28RA (human, UniProt Q8IU57 21-228)
T1 construct: Plates were 'coated with IL28RA'; also called hIL28RA ECD antigen; hIL28RA
T1 sequence: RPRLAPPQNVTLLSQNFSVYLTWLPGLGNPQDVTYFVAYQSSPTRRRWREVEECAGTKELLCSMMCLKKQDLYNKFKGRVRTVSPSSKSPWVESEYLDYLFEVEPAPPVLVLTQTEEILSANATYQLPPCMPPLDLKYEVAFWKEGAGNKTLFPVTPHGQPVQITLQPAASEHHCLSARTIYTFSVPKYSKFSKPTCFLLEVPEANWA


Target: T1, extracellular domain of human IL28RA
Assay: periplasmic extract ELISA on IL28RA-coated plates, A450 at least threefold over PBS-coated control
Method: Upon completion of the biopanning of Example 3, three 96-well plates of individual phage clones were isolated in order to perform periplasmic extract ELISA (PE-ELISA) on IL28RA coated plates to identify positive VHH binders that selectively bound IL28RA . A 96-well plate was coated with IL28RA and PBS under the same conditions. Next, wells were blocked at 37° C. for 1 h. Then, 100 µl of extracted antibodies was added to each well and incubated for 1 h. Subsequently, 100 µl of anti-tag polyclonal antibody conjugated to HRP was added to each well and incubated at 37° C. for 1 h. Plates were developed with TMB substrate. The reaction was stopped by the addition of H2SO4. Absorbance at 450 nm was read on a microtiter plate reader. […] Positive clones were sequenced, and sequences analyzed to identify unique clonotypes

| Binder | binding result |
| --- | --- |
| hIL28RA VHH1 (VHH, not shown: large carriers, Camel VHH tested as periplasmic extract of a phage clone (PE-ELISA); also called anti-human IL28RA VHH) VHH: QVQLQESGGGSVQAGGSLRLSCASSGYISSSYCMAWFRQAPGKEREGAAGVTRDGKTYYGDSVKGRFAISRDNAKNTLYLQMNSLKPEDTAMYYCAAGPPPCITSMPAGGDYGYRYWGQGTQVTVSS | binds |
| hIL28RA VHH4 (VHH, not shown: large carriers, Camel VHH tested as periplasmic extract of a phage clone (PE-ELISA); also called anti-human IL28RA VHH) VHH: QVQLQESGGGSVQLGGSLRLSCLVSGSTDNIKYMGWFRQAPGKEREGVAAVYTSGGAVVYADSVKGRFTISQDDAKNTMYLQMNSLKPEDTAMYYCAASRAPAPPRLLLQRALVEYWGQGTQVTVSS | binds |
| hIL28RA VHH3 (VHH, not shown: large carriers, Camel VHH tested as periplasmic extract of a phage clone (PE-ELISA); also called anti-human IL28RA VHH) VHH: QVQLQESGGGLVQPGGSLRLSCVASGFTFSDYAMSWVRQAPGMGLERVSAIGRDGSTFYPDSVKGRFTISRDNAKNTLYLQLNSLKTEDTAMYYCAKEEPGSSSRGQGTQVTVSS | binds |
| hIL28RA VHH6 (VHH, not shown: large carriers, Camel VHH tested as periplasmic extract of a phage clone (PE-ELISA); also called anti-human IL28RA VHH) VHH: QVQLQESGGGLVQPGGSLRLSCAASGFTFSDYAMSWVRQAPGMGLERVSAIGRDGSTFYPDSVKGRFTISRDNAKNTLYLQLNSLKTEDTAMYYCAKEEPGSSSRGQGTQVTVSS | binds |
| hIL28RA VHH5 (VHH, not shown: large carriers, Camel VHH tested as periplasmic extract of a phage clone (PE-ELISA); also called anti-human IL28RA VHH) VHH: QVQLQESGGGLVQPGGSLRLSCAASGFTFSNATMSWVRQAPGKEIEWVSAISNSRGTKYYAAFVKGRFTISRDNAKNTLYLQLNNLKTEDTAMYYCTKDWKTSYSDYDLSDGQGTQVTVSS | binds |
| hIL28RA VHH13 (VHH, not shown: large carriers, Camel VHH tested as periplasmic extract of a phage clone (PE-ELISA); also called anti-human IL28RA VHH) VHH: QVQLQESGGGLVQPGSSLRLSCAASGFTFSNATMSWVRQAPGKEIEWVSAISNSRGTKYYAAFVKGRFTISRDNAKNTLYLQLNNLKTEDTAMYYCTKDWKTSYSDYDLSDGQGTQVTVSS | binds |
| hIL28RA VHH10 (VHH, not shown: large carriers, Camel VHH tested as periplasmic extract of a phage clone (PE-ELISA); also called anti-human IL28RA VHH) VHH: QVQLQESGGGSVQAGGSLRLSCASSGYISSRSTYCMGWFRQAPGKEREVAAVVTGDSRTYYGDSVKGRFAISRDNAKNTLYLQMNSLKPEDTAMYYCAAGPPPCITTMPAGGDYGYRYWGQGTQVTVSS | binds |
| hIL28RA VHH12 (VHH, not shown: large carriers, Camel VHH tested as periplasmic extract of a phage clone (PE-ELISA); also called anti-human IL28RA VHH) VHH: QVQLQESGGGSVQAGGSLRLSCASSGYISSRSTYCMGWFRQAPGKEREVAAIVTGDSRTYYGDSVRGRFAISRDNAKNTLYLQMNSLKPEDTAMYYCAAGPPPCITSMPAGGDYGYRYWGQGTQVTVSS | binds |
| hIL28RA VHH8 (VHH, not shown: large carriers, Camel VHH tested as periplasmic extract of a phage clone (PE-ELISA); also called anti-human IL28RA VHH) VHH: QVQLQESGGGSVQAGGSLRLSCAVSRYTISRSDCMGWFRQAPGKEREGVARIGSDGTTSYADSVKERFTISKDNAKNILYLQMNSLKPEDTARYYCAATALLLGRGSACHKEVSVFSWWGQGTQVTVSS | binds |
| hIL28RA VHH7 (VHH, not shown: large carriers, Camel VHH tested as periplasmic extract of a phage clone (PE-ELISA); also called anti-human IL28RA VHH) VHH: QVQLQESGGGLVQPGGSLRLSCAASGFTFSNYGMSWVRQAPGKGLEWVSGINSGGDDTFYTDSVKGRFTISRDNAKNTLYLQMNSLKTEDTAMYYCAMGASGMIPRGQGTQVTVSS | binds |
| hIL28RA VHH2 (VHH, not shown: large carriers, Camel VHH tested as periplasmic extract of a phage clone (PE-ELISA); also called anti-human IL28RA VHH) VHH: QVQLQESGGGLVQPGGSLRLSCAASGFTFSNYGMSWVRQAPGKGLEWVSGINSGGDDTFYTDSVKGRFTISRDNAKNTLYLQMNSLKTEDTAMYYCAMGASGMIPRGQGTQITVSS | binds |
| hIL28RA VHH9 (VHH, not shown: large carriers, Camel VHH tested as periplasmic extract of a phage clone (PE-ELISA); also called anti-human IL28RA VHH) VHH: QVQLQESGGGLVQPGGSLRLSCAASGFTFSNYGMSWVRQAPGKGLEWVSGINSGGDDTFYTDSVKGRFTISRDNVKNTLYLQMNSLKTEDTAMYYCAMGASGMIPRGQGTQVTVSS | binds |
| hIL28RA VHH11 (VHH, not shown: large carriers, Camel VHH tested as periplasmic extract of a phage clone (PE-ELISA); also called anti-human IL28RA VHH) VHH: QVQLQESGGGSVQSGGSLRLSCAASGFTYSSYCMGWFRQAPGKEREGVAAIDSDGSTSYADSVKGRFTISKDNAKNTLYLQMNSLRPEDTAMYYCAADGEYNDYVCWSTGLRYRGQGTQVTVSS | binds |
| hIL28RA VHH14 (VHH, not shown: large carriers, Camel VHH tested as periplasmic extract of a phage clone (PE-ELISA); also called anti-human IL28RA VHH) VHH: QVQLQESGGGSVQAGGSLRLSCASSGYISRSSYCMGWFRQAPGKEREVAAIVTGDGRTYYGDSVKGRFAISRDNAKNTLYLQMNSLKPEDTAMYYCVAGPPPCITTMPAGGDYGYRYWGRGTQVTVSS | binds |
